The source of these data is patent US20260028403A1 (Zymeworks, published 2026).

This assay addresses huCD28 (human, UniProt P10747 19-152, limits assumed). Put plainly: SPR, OAA format. A general note: In SPR one partner is held on a chip, and binding of the other changes the refractive index at the surface.

B1: v34891 (parental huTN228 OAA) (antibody, V domains shown)
VH: QVQLQESGPGLVKPSETLSLTCAVSGFSLTSYGVHWIRQPPGKGLEWLGVIWPGGGTNFNSALMSRLTISEDTSKNQVSLKLSSVTAADTAVYYCARDRAYGNYLYAMDYWGQGTLVTVSS
VL: DIQMTQSPSSLSASVGDRVTITCRASESVEYYVTSLMQWYQQKPGKAPKLLIYAASNVDSGVPSRFSGSGSGTDFTLTISSLQPEDIATYYCQQSRKVPFTFGGGTKVEIK
notes: one-arm Fab antibody (OAA) format; also called huTN228 parental one-arm Fab antibody
Consider B1, for which the “Fold-change from WT” value was 1 fold, binding was put at a Kd of 87.9 nM, the koff turned out to be 0.00319 s⁻¹ and the kon worked out at 36300 M⁻¹ s⁻¹.

B2: v37845 (antibody, V domains shown)
VH: QVQLQESGPGLVKPSETLSLTCAVSGFSLTSAGVHWIRQPPGKGLEWLGVIWPGGGTNFNSALMSRLTISEDTSKNQVSLKLSSVTAADTAVYYCARDRAYGNYLYAMDYWGQGTLVTVSS
VL: DIQMTQSPSSLSASVGDRVTITCRASESVEYYVTSLMQWYQQKPGKAPKLLIYAASNVDSGVPSRFSGSGSGTDFTLTISSLQPEDIATYYCQQSRKVPFTFGGGTKVEIK
notes: OAA format; also called huTN228 Y1037A (VH) OAA
Turning to B2, the “Fold-change from WT” value turned out to be 2.81 fold, binding was put at a Kd of 247 nM, the koff was 0.0139 s⁻¹ and the kon came to 56600 M⁻¹ s⁻¹.

B3: v37856 (antibody, V domains shown)
VH: QVQLQESGPGLVKPSETLSLTCAVSGFSLTSYGVHWIRQPPGKGLEWLGVIWPGGGTNFNSALMSRLTISEDTSKNQVSLKLSSVTAADTAVYYCARDRAYGAYLYAMDYWGQGTLVTVSS
VL: DIQMTQSPSSLSASVGDRVTITCRASESVEYYVTSLMQWYQQKPGKAPKLLIYAASNVDSGVPSRFSGSGSGTDFTLTISSLQPEDIATYYCQQSRKVPFTFGGGTKVEIK
notes: OAA format; also called huTN228 N1111AA (VH) OAA
As to B3, the “Fold-change from WT” value was found to be 6.16 fold, the Kd worked out at 542 nM, the dissociation rate constant (koff) came to 0.0254 s⁻¹ and the kon amounted to 47100 M⁻¹ s⁻¹.

B4: v37844 (antibody, V domains shown)
VH: QVQLQESGPGLVKPSETLSLTCAVSGFSLTAYGVHWIRQPPGKGLEWLGVIWPGGGTNFNSALMSRLTISEDTSKNQVSLKLSSVTAADTAVYYCARDRAYGNYLYAMDYWGQGTLVTVSS
VL: DIQMTQSPSSLSASVGDRVTITCRASESVEYYVTSLMQWYQQKPGKAPKLLIYAASNVDSGVPSRFSGSGSGTDFTLTISSLQPEDIATYYCQQSRKVPFTFGGGTKVEIK
notes: OAA format as v34891; also called huTN228 S1036A (VH) OAA
In the case of B4, the “Fold-change from WT” value came to 0.7 fold, the Kd is 61.6 nM, the koff stood at 0.00313 s⁻¹ and the kon came out at 50800 M⁻¹ s⁻¹.

B5: v37868 (antibody, V domains shown)
VH: QVQLQESGPGLVKPSETLSLTCAVSGFSLTSYGVHWIRQPPGKGLEWLGVIWPGGGTNFNSALMSRLTISEDTSKNQVSLKLSSVTAADTAVYYCARDRAYGNYLYAMDYWGQGTLVTVSS
VL: DIQMTQSPSSLSASVGDRVTITCRASESVEYAVTSLMQWYQQKPGKAPKLLIYAASNVDSGVPSRFSGSGSGTDFTLTISSLQPEDIATYYCQQSRKVPFTFGGGTKVEIK
notes: OAA format as v34891; also called huTN228 Y1034A (VL) OAA
As to B5, the “Fold-change from WT” value is 5.37 fold, the Kd amounted to 472 nM, the off-rate constant (koff) is 0.0601 s⁻¹ and the kon stood at 126000 M⁻¹ s⁻¹.

B6: v37875 (antibody, V domains shown)
VH: QVQLQESGPGLVKPSETLSLTCAVSGFSLTSYGVHWIRQPPGKGLEWLGVIWPGGGTNFNSALMSRLTISEDTSKNQVSLKLSSVTAADTAVYYCARDRAYGNYLYAMDYWGQGTLVTVSS
VL: DIQMTQSPSSLSASVGDRVTITCRASESVEYYVTSLMQWYQQKPGKAPKLLIYAASNVASGVPSRFSGSGSGTDFTLTISSLQPEDIATYYCQQSRKVPFTFGGGTKVEIK
notes: OAA format as v34891; also called huTN228 D1068A (VL) OAA
As for B6, the “Fold-change from WT” value is 0.53 fold, the Kd worked out at 46.6 nM, the koff was found to be 0.00315 s⁻¹ and the kon is 67600 M⁻¹ s⁻¹.

B7: v37851 (antibody, V domains shown)
VH: QVQLQESGPGLVKPSETLSLTCAVSGFSLTSYGVHWIRQPPGKGLEWLGVIWPGGGTAFNSALMSRLTISEDTSKNQVSLKLSSVTAADTAVYYCARDRAYGNYLYAMDYWGQGTLVTVSS
VL: DIQMTQSPSSLSASVGDRVTITCRASESVEYYVTSLMQWYQQKPGKAPKLLIYAASNVDSGVPSRFSGSGSGTDFTLTISSLQPEDIATYYCQQSRKVPFTFGGGTKVEIK
notes: OAA format as v34891; also called huTN228 N1066A (VH) OAA
For the molecule B7, the “Fold-change from WT” value is 4.69 fold, the Kd is 412 nM, the koff worked out at 0.037 s⁻¹ and the kon stood at 90900 M⁻¹ s⁻¹.

B8: v37841 (antibody, V domains shown)
VH: QVQLQESGPGLVKPSETLSLTCAVSGFALTSYGVHWIRQPPGKGLEWLGVIWPGGGTNFNSALMSRLTISEDTSKNQVSLKLSSVTAADTAVYYCARDRAYGNYLYAMDYWGQGTLVTVSS
VL: DIQMTQSPSSLSASVGDRVTITCRASESVEYYVTSLMQWYQQKPGKAPKLLIYAASNVDSGVPSRFSGSGSGTDFTLTISSLQPEDIATYYCQQSRKVPFTFGGGTKVEIK
notes: OAA format as v34891; also called huTN228 S1029A (VH) OAA
With B8, the “Fold-change from WT” value was determined as 0.72 fold; the affinity, expressed as Kd, was 63.4 nM; the koff stood at 0.00322 s⁻¹; the kon was 51100 M⁻¹ s⁻¹.

B9: v37855 (antibody, V domains shown)
VH: QVQLQESGPGLVKPSETLSLTCAVSGFSLTSYGVHWIRQPPGKGLEWLGVIWPGGGTNFNSALMSRLTISEDTSKNQVSLKLSSVTAADTAVYYCARDRAYANYLYAMDYWGQGTLVTVSS
VL: DIQMTQSPSSLSASVGDRVTITCRASESVEYYVTSLMQWYQQKPGKAPKLLIYAASNVDSGVPSRFSGSGSGTDFTLTISSLQPEDIATYYCQQSRKVPFTFGGGTKVEIK
notes: OAA format as v34891; also called huTN228 G1111A (VH) OAA
On to B9, for which the “Fold-change from WT” value was 0.84 fold, the equilibrium dissociation constant (Kd) is 73.7 nM, the koff amounted to 0.00342 s⁻¹ and the kon is 46400 M⁻¹ s⁻¹.

B10: v37869 (antibody, V domains shown)
VH: QVQLQESGPGLVKPSETLSLTCAVSGFSLTSYGVHWIRQPPGKGLEWLGVIWPGGGTNFNSALMSRLTISEDTSKNQVSLKLSSVTAADTAVYYCARDRAYGNYLYAMDYWGQGTLVTVSS
VL: DIQMTQSPSSLSASVGDRVTITCRASESVEYYATSLMQWYQQKPGKAPKLLIYAASNVDSGVPSRFSGSGSGTDFTLTISSLQPEDIATYYCQQSRKVPFTFGGGTKVEIK
notes: OAA format as v34891; also called huTN228 V1035A (VL) OAA
With B10, the “Fold-change from WT” value was 4.9 fold, the Kd turned out to be 431 nM, the off-rate (koff) turned out to be 0.0277 s⁻¹ and the kon came to 67700 M⁻¹ s⁻¹.

B11: v37847 (antibody, V domains shown)
VH: QVQLQESGPGLVKPSETLSLTCAVSGFSLTSYGVHWIRQPPGKGLEWLGVIWAGGGTNFNSALMSRLTISEDTSKNQVSLKLSSVTAADTAVYYCARDRAYGNYLYAMDYWGQGTLVTVSS
VL: DIQMTQSPSSLSASVGDRVTITCRASESVEYYVTSLMQWYQQKPGKAPKLLIYAASNVDSGVPSRFSGSGSGTDFTLTISSLQPEDIATYYCQQSRKVPFTFGGGTKVEIK
notes: OAA format; also called huTN228 P1058A (VH) OAA
As to B11, the “Fold-change from WT” value is 1.39 fold, binding was characterised by a dissociation constant (Kd) of 122 nM, the koff was 0.00626 s⁻¹ and the kon stood at 51100 M⁻¹ s⁻¹.

B12: v37876 (antibody, V domains shown)
VH: QVQLQESGPGLVKPSETLSLTCAVSGFSLTSYGVHWIRQPPGKGLEWLGVIWPGGGTNFNSALMSRLTISEDTSKNQVSLKLSSVTAADTAVYYCARDRAYGNYLYAMDYWGQGTLVTVSS
VL: DIQMTQSPSSLSASVGDRVTITCRASESVEYYVTSLMQWYQQKPGKAPKLLIYAASNVDAGVPSRFSGSGSGTDFTLTISSLQPEDIATYYCQQSRKVPFTFGGGTKVEIK
notes: OAA format as v34891; also called huTN228 S1069A (VL) OAA
Consider B12, for which the “Fold-change from WT” value came to 0.64 fold, binding was put at a Kd of 56.4 nM, the koff turned out to be 0.00326 s⁻¹ and the kon stood at 57800 M⁻¹ s⁻¹.

B13: v37858 (antibody, V domains shown)
VH: QVQLQESGPGLVKPSETLSLTCAVSGFSLTSYGVHWIRQPPGKGLEWLGVIWPGGGTNFNSALMSRLTISEDTSKNQVSLKLSSVTAADTAVYYCARDRAYGNYAYAMDYWGQGTLVTVSS
VL: DIQMTQSPSSLSASVGDRVTITCRASESVEYYVTSLMQWYQQKPGKAPKLLIYAASNVDSGVPSRFSGSGSGTDFTLTISSLQPEDIATYYCQQSRKVPFTFGGGTKVEIK
notes: OAA format as v34891; also called huTN228 L1112AA (VH) OAA
Regarding B13, the “Fold-change from WT” value was determined as 3.91 fold; the affinity, expressed as Kd, was 344 nM; the koff came out at 0.0221 s⁻¹; the kon stood at 64700 M⁻¹ s⁻¹.

B14: v37854 (antibody, V domains shown)
VH: QVQLQESGPGLVKPSETLSLTCAVSGFSLTSYGVHWIRQPPGKGLEWLGVIWPGGGTNFNSALMSRLTISEDTSKNQVSLKLSSVTAADTAVYYCARDRAAGNYLYAMDYWGQGTLVTVSS
VL: DIQMTQSPSSLSASVGDRVTITCRASESVEYYVTSLMQWYQQKPGKAPKLLIYAASNVDSGVPSRFSGSGSGTDFTLTISSLQPEDIATYYCQQSRKVPFTFGGGTKVEIK
notes: OAA format as v34891; also called huTN228 Y1110A (VH) OAA
As to B14, the “Fold-change from WT” value was found to be 0.9 fold, the Kd worked out at 79 nM, the koff worked out at 0.0034 s⁻¹ and the kon is 43200 M⁻¹ s⁻¹.

B15: v37874 (antibody, V domains shown)
VH: QVQLQESGPGLVKPSETLSLTCAVSGFSLTSYGVHWIRQPPGKGLEWLGVIWPGGGTNFNSALMSRLTISEDTSKNQVSLKLSSVTAADTAVYYCARDRAYGNYLYAMDYWGQGTLVTVSS
VL: DIQMTQSPSSLSASVGDRVTITCRASESVEYYVTSLMQWYQQKPGKAPKLLIYAASAVDSGVPSRFSGSGSGTDFTLTISSLQPEDIATYYCQQSRKVPFTFGGGTKVEIK
notes: OAA format; also called huTN228 N1066A (VL) OAA
For the molecule B15, the “Fold-change from WT” value was determined as 0.59 fold, the Kd was determined as 52.1 nM, the koff was 0.00321 s⁻¹ and the kon came out at 61800 M⁻¹ s⁻¹.

B16: v37843 (antibody, V domains shown)
VH: QVQLQESGPGLVKPSETLSLTCAVSGFSLASYGVHWIRQPPGKGLEWLGVIWPGGGTNFNSALMSRLTISEDTSKNQVSLKLSSVTAADTAVYYCARDRAYGNYLYAMDYWGQGTLVTVSS
VL: DIQMTQSPSSLSASVGDRVTITCRASESVEYYVTSLMQWYQQKPGKAPKLLIYAASNVDSGVPSRFSGSGSGTDFTLTISSLQPEDIATYYCQQSRKVPFTFGGGTKVEIK
notes: OAA format as v34891; also called huTN228 T1035A (VH) OAA
On to B16, for which the “Fold-change from WT” value worked out at 0.73 fold, binding was put at a Kd of 64 nM, the koff was 0.00301 s⁻¹ and the association rate constant (kon) amounted to 47100 M⁻¹ s⁻¹.

B17: v37870 (antibody, V domains shown)
VH: QVQLQESGPGLVKPSETLSLTCAVSGFSLTSYGVHWIRQPPGKGLEWLGVIWPGGGTNFNSALMSRLTISEDTSKNQVSLKLSSVTAADTAVYYCARDRAYGNYLYAMDYWGQGTLVTVSS
VL: DIQMTQSPSSLSASVGDRVTITCRASESVEYYVASLMQWYQQKPGKAPKLLIYAASNVDSGVPSRFSGSGSGTDFTLTISSLQPEDIATYYCQQSRKVPFTFGGGTKVEIK
notes: OAA format as v34891; also called huTN228 T1036A (VL) OAA
Take B17: the “Fold-change from WT” value turned out to be 3.08 fold; the affinity, expressed as Kd, was 271 nM; the koff worked out at 0.0258 s⁻¹; the kon was 96800 M⁻¹ s⁻¹.

One may read the Kd as the constant that tells how readily two partners part at equilibrium. For orientation: koff means the rate constant with which the complex falls apart. A higher koff goes with a short-lived complex. By kon is commonly meant a measure of how fast the partners come together.
